Assay: SHC variant screening reactions: conversion of HFA to sclareolide by freeze-dried whole cells, GC analysis
Assay type: biochemical, Gluconobacter morbifer
Conditions: for Fold improvement (sclareolide production): based on % peak area, relative to V45L+Q54E+I278T+T326S variant, no metal ions; for Fold improvements (sclareolide production): 20 mg/mL HFA, 50% enzyme loading, relative to initial mutant
Procedure: SHC Variant Enzyme Expression. Wild-type and the GmSHC variants of Table 5 were individually cloned into pET28a(+). These DNA constructs were transformed into Lemo21 (DE3) E. coli and plated onto agar plates containing Kanamycin. These were incubated overnight at 37° C. A single bacterial colony was picked and used to inoculate 10 mL LB+Kanamycin in a 50 mL falcon tube. This primary culture was incubated overnight at 37° C. with agitation. These cultures (10 mL) were used to inoculate 1L LB+Kanamycin in a shake flask, which was subsequently incubated at 37° C. at 180 rpm for about 4 hours. Protein expression was then induced with the addition of 0.4 mM IPTG and 0.2 mM L-rhamnose. The incubator temperature was lowered to 25° C. and the cultures further incubated at 180 rpm overnight. The next day, the cultures were centrifuged at 4000 rpm for 10 minutes and the supernatant discarded. Cell pellets were resuspended in 0.1 M Potassium phosphate buffer pH 7.4 and exposed to 1 round of freeze/thawing before lyophilization and then use in the reaction assay.
SHC Variant Screening Reactions. Sodium citrate buffer 0.2 M, pH 5 was prepared and 500 μL of this buffer was added to freeze-dried whole cells of each variant (from 1 L shake flask fermentation of E. coli transformed with desired variant plasmid). The results were obtained with an enzyme loading of 50% (w/w). Subsequently, HFA (20 mg/mL) was added to the buffer/enzyme mix. The reactions were incubated at 25° C. with agitation for 72 hours. To stop the reaction and extract the products, a 2X volume of 3:2, heptane: isopropanol was added to each reaction. These were then incubated at 37° C. for 30 minutes with agitation to mix thoroughly. The reactions were centrifuged for 10 minutes at 4000 rpm to pellet any cellular material. The upper organic layer was then removed and placed in a clean gas chromatography (GC) vial.
GC Analysis Method. A GC analytical method was used to detect each of the starting materials and products used in the screening reactions. Due to the volume of samples generated, a fast method was developed with a run time of only 4.5 minutes.
No metal ions were included in the reaction.
Further analysis was conducted to identify one or more optimal SHC enzymes. In particular, substrate loading was increased to 20 mg/mL and incubation with a reduced enzyme loading (50%).

[1] = 10 mg/mL HFA, 100% enzyme loading

| Molecule | conversion of HFA to sclareolide [1] | Fold improvement (sclareolide production) [1] | Fold improvements (sclareolide production) |
| --- | --- | --- | --- |
| WT: wild-type squalene hopene cyclase from Gluconobacter morbifer, SEQ ID NO: 1 / SEQ ID NO: 2 (protein, Gluconobacter morbifer) MSPADISTKSSSFQRLDNMLPEAVSSACDWLIDQQKPDGHWVGPVESNACMEAQWCLALWFLGQEDHPLRPRLAQALLEMQREDGSWGIYVGADHGDINTTVEAYAALRSMGYAADMPIMAKSAAWIQQKGGLRNVRVFTRYWLALIGEWPWDKTPNLPPEIIWLPDNFIFSIYNFAQWARATMMPLTILSARRPSRPLLPENRLDGLFPEGRENFDYELPVKGEEDLWGRFFRAADKGLHSLQSFPVRRFVPREAAIRHVIEWIIRHQDADGGWGGIQPPWIYGLMALSVEGYPLHHPVLAKAMDALNDPGWRRDKGDASWIQATNSPVWDTMLAVLALHDAGAEDRYSPQMDKAIGWLLDRQVRVKGDWSIKLPDTEPGGWAFEYANDKYPDTDDTAVALIALAGCRHRPEWRERDIEGAISRGVNWLLAMQSSSGGWGAFDKDNNRSILTKIPFCDFGEALDPPSVDVTAHVLEAFGLLGISRNHPSVQKALAYIRSEQERNGAWFGRWGVNYVYGTGAVLPALAAIGEDMTQPYIVRACDWLMSVQQENGGWGESCASYMDINAVGHGVATASQTAWALIGLLAAKRPKDREAIARGCQFLIERQEDGSWTEEEYTGTGFPGYGVGQAIKLDDPSLPDRLLQGAELSRAFMLRYDLYRQYFPVMALSRARRMMKEDASAAA | did not show any conversion | – | – |
| V45L + Q54E + M184T + R249R + I278T + T326S: GmSHC variant with these substitutions relative to SEQ ID NO: 2 (protein, Gluconobacter morbifer) MSPADISTKSSSFQRLDNMLPEAVSSACDWLIDQQKPDGHWVGPLESNACMEAEWCLALWFLGQEDHPLRPRLAQALLEMQREDGSWGIYVGADHGDINTTVEAYAALRSMGYAADMPIMAKSAAWIQQKGGLRNVRVFTRYWLALIGEWPWDKTPNLPPEIIWLPDNFIFSIYNFAQWARATTMPLTILSARRPSRPLLPENRLDGLFPEGRENFDYELPVKGEEDLWGRFFRAADKGLHSLQSFPVRRFVPREAAIRHVIEWIIRHQDADGGWGGTQPPWIYGLMALSVEGYPLHHPVLAKAMDALNDPGWRRDKGDASWIQASNSPVWDTMLAVLALHDAGAEDRYSPQMDKAIGWLLDRQVRVKGDWSIKLPDTEPGGWAFEYANDKYPDTDDTAVALIALAGCRHRPEWRERDIEGAISRGVNWLLAMQSSSGGWGAFDKDNNRSILTKIPFCDFGEALDPPSVDVTAHVLEAFGLLGISRNHPSVQKALAYIRSEQERNGAWFGRWGVNYVYGTGAVLPALAAIGEDMTQPYIVRACDWLMSVQQENGGWGESCASYMDINAVGHGVATASQTAWALIGLLAAKRPKDREAIARGCQFLIERQEDGSWTEEEYTGTGFPGYGVGQAIKLDDPSLPDRLLQGAELSRAFMLRYDLYRQYFPVMALSRARRMMKEDASAAA | – | 3.3 Fold | – |
| V45L + Q54E + V222R + I278T + T326S: GmSHC variant with these substitutions relative to SEQ ID NO: 2 (protein, Gluconobacter morbifer) MSPADISTKSSSFQRLDNMLPEAVSSACDWLIDQQKPDGHWVGPLESNACMEAEWCLALWFLGQEDHPLRPRLAQALLEMQREDGSWGIYVGADHGDINTTVEAYAALRSMGYAADMPIMAKSAAWIQQKGGLRNVRVFTRYWLALIGEWPWDKTPNLPPEIIWLPDNFIFSIYNFAQWARATMMPLTILSARRPSRPLLPENRLDGLFPEGRENFDYELPRKGEEDLWGRFFRAADKGLHSLQSFPVRRFVPREAAIRHVIEWIIRHQDADGGWGGTQPPWIYGLMALSVEGYPLHHPVLAKAMDALNDPGWRRDKGDASWIQASNSPVWDTMLAVLALHDAGAEDRYSPQMDKAIGWLLDRQVRVKGDWSIKLPDTEPGGWAFEYANDKYPDTDDTAVALIALAGCRHRPEWRERDIEGAISRGVNWLLAMQSSSGGWGAFDKDNNRSILTKIPFCDFGEALDPPSVDVTAHVLEAFGLLGISRNHPSVQKALAYIRSEQERNGAWFGRWGVNYVYGTGAVLPALAAIGEDMTQPYIVRACDWLMSVQQENGGWGESCASYMDINAVGHGVATASQTAWALIGLLAAKRPKDREAIARGCQFLIERQEDGSWTEEEYTGTGFPGYGVGQAIKLDDPSLPDRLLQGAELSRAFMLRYDLYRQYFPVMALSRARRMMKEDASAAA | – | 4.2 Fold | 27 Fold |
| V45L + Q54E + I278T + T326S: GmSHC variant, first mutant enzyme which showed formation of sclareolide (protein) MSPADISTKSSSFQRLDNMLPEAVSSACDWLIDQQKPDGHWVGPLESNACMEAEWCLALWFLGQEDHPLRPRLAQALLEMQREDGSWGIYVGADHGDINTTVEAYAALRSMGYAADMPIMAKSAAWIQQKGGLRNVRVFTRYWLALIGEWPWDKTPNLPPEIIWLPDNFIFSIYNFAQWARATMMPLTILSARRPSRPLLPENRLDGLFPEGRENFDYELPVKGEEDLWGRFFRAADKGLHSLQSFPVRRFVPREAAIRHVIEWIIRHQDADGGWGGTQPPWIYGLMALSVEGYPLHHPVLAKAMDALNDPGWRRDKGDASWIQASNSPVWDTMLAVLALHDAGAEDRYSPQMDKAIGWLLDRQVRVKGDWSIKLPDTEPGGWAFEYANDKYPDTDDTAVALIALAGCRHRPEWRERDIEGAISRGVNWLLAMQSSSGGWGAFDKDNNRSILTKIPFCDFGEALDPPSVDVTAHVLEAFGLLGISRNHPSVQKALAYIRSEQERNGAWFGRWGVNYVYGTGAVLPALAAIGEDMTQPYIVRACDWLMSVQQENGGWGESCASYMDINAVGHGVATASQTAWALIGLLAAKRPKDREAIARGCQFLIERQEDGSWTEEEYTGTGFPGYGVGQAIKLDDPSLPDRLLQGAELSRAFMLRYDLYRQYFPVMALSRARRMMKEDASAAA | – | -0- Fold | 0 Fold |
| V45L + Q54E + V222K + I278T + T326S: GmSHC variant with these substitutions relative to SEQ ID NO: 2 (protein, Gluconobacter morbifer) MSPADISTKSSSFQRLDNMLPEAVSSACDWLIDQQKPDGHWVGPLESNACMEAEWCLALWFLGQEDHPLRPRLAQALLEMQREDGSWGIYVGADHGDINTTVEAYAALRSMGYAADMPIMAKSAAWIQQKGGLRNVRVFTRYWLALIGEWPWDKTPNLPPEIIWLPDNFIFSIYNFAQWARATMMPLTILSARRPSRPLLPENRLDGLFPEGRENFDYELPKKGEEDLWGRFFRAADKGLHSLQSFPVRRFVPREAAIRHVIEWIIRHQDADGGWGGTQPPWIYGLMALSVEGYPLHHPVLAKAMDALNDPGWRRDKGDASWIQASNSPVWDTMLAVLALHDAGAEDRYSPQMDKAIGWLLDRQVRVKGDWSIKLPDTEPGGWAFEYANDKYPDTDDTAVALIALAGCRHRPEWRERDIEGAISRGVNWLLAMQSSSGGWGAFDKDNNRSILTKIPFCDFGEALDPPSVDVTAHVLEAFGLLGISRNHPSVQKALAYIRSEQERNGAWFGRWGVNYVYGTGAVLPALAAIGEDMTQPYIVRACDWLMSVQQENGGWGESCASYMDINAVGHGVATASQTAWALIGLLAAKRPKDREAIARGCQFLIERQEDGSWTEEEYTGTGFPGYGVGQAIKLDDPSLPDRLLQGAELSRAFMLRYDLYRQYFPVMALSRARRMMKEDASAAA | – | 5.4 Fold | 12 Fold |
| V45L + Q54E + V222K + I278S + T326S: GmSHC variant with these substitutions relative to SEQ ID NO: 2 (protein, Gluconobacter morbifer) MSPADISTKSSSFQRLDNMLPEAVSSACDWLIDQQKPDGHWVGPLESNACMEAEWCLALWFLGQEDHPLRPRLAQALLEMQREDGSWGIYVGADHGDINTTVEAYAALRSMGYAADMPIMAKSAAWIQQKGGLRNVRVFTRYWLALIGEWPWDKTPNLPPEIIWLPDNFIFSIYNFAQWARATMMPLTILSARRPSRPLLPENRLDGLFPEGRENFDYELPKKGEEDLWGRFFRAADKGLHSLQSFPVRRFVPREAAIRHVIEWIIRHQDADGGWGGSQPPWIYGLMALSVEGYPLHHPVLAKAMDALNDPGWRRDKGDASWIQASNSPVWDTMLAVLALHDAGAEDRYSPQMDKAIGWLLDRQVRVKGDWSIKLPDTEPGGWAFEYANDKYPDTDDTAVALIALAGCRHRPEWRERDIEGAISRGVNWLLAMQSSSGGWGAFDKDNNRSILTKIPFCDFGEALDPPSVDVTAHVLEAFGLLGISRNHPSVQKALAYIRSEQERNGAWFGRWGVNYVYGTGAVLPALAAIGEDMTQPYIVRACDWLMSVQQENGGWGESCASYMDINAVGHGVATASQTAWALIGLLAAKRPKDREAIARGCQFLIERQEDGSWTEEEYTGTGFPGYGVGQAIKLDDPSLPDRLLQGAELSRAFMLRYDLYRQYFPVMALSRARRMMKEDASAAA | – | 7.4 Fold | 28.4 Fold |
